Measurements: patent US20230407326A1, “INDUCIBLE PROMOTER FOR VIRAL VECTOR PRODUCTION” (ASKLEPIOS BIOPHARMACEUTICAL, INC., priority 2020, published 2023)

Key:
HEK293-T cells = test: Luciferase expression in transiently transfected HEK293-T cells, normoxia vs 24 hrs hypoxia; format: cell-based, human
Procedure: HEK293-T are seeded at a density of 20%. Once they reached a confluence between 60 and 80%, the media is changed with DMEM (#21885-025—Thermo Scientific) supplemented with 10% FBS (Gibco, 26140). After 3 hours, the cells were transfected by a transfection mix. The transfection mix is prepared by adding DNA (2 μg per 6 well plate) and PEI 25 kDA (#23966-1-Polyscience) in a ratio of 1:3 in sterile DPBS (#14190169—ThermoFisher Scientific). After mixing, the transfection mix is incubated at room temperature for 30 minutes and then added directly to the cells. After 16 to 18 h post transfection, the media is changed to DMEM+2% FBS. […]
After transfection the cells were incubated for 24 hrs in normoxic conditions (20% oxygen). Induction of the promoters was assessed by using luciferase activity after 24 hrs in normoxia or hypoxia (5% oxygen, 10% carbon dioxide and 85% nitrogen). […]
(§1) Luciferase activity was measured using LARII (Dual Luciferase Reporter 1000 assay system, Promega, E1980).
Media was removed from the cells at the respective time point (0, 3, 5, 24 hrs after induction). […] 10 μl of supernatant was pipetted into white 96-well plate and luminescence measured by addition of 50 μl of LARII substrate.
β-galactosidase activity was measured as per manufacturer's instructions (Mammalian βGalactosidase Assay Kit, 75707/75710, Thermo Scientific) using 25 μl of lysate. […]

HEK293-F cells = test: Luciferase expression from hypoxia-inducible promoters in transiently transfected HEK293-F cells under hypoxia; format: cell-based, human; settings: hypoxia 5% oxygen, 3, 5 and 24 hrs
Procedure: 40 ml of cells were grown in a 250 ml vented Erlenmeyer flask (Sigma-Aldrich CLS431144) at 37° C., 20% O2, 8% CO2 with agitation at 100 rpm. Cells were seeded as described in the manufacturer's instructions (300,000 cells/ml). HEK293-F were obtained from Thermofisher, R79007.
(§2) One day before transfection, the cells were counted using a haemocytometer and split to 500,000 cells/ml.
On the day of transfection, the cells are seeded to 1,000,000 cells/ml in 500 μl of appropriate medium (Freestyle 293 expression medium, 12338002) in a 24 well plate. 0.625 μg of DNA per well was then added to 10 μl of OptiMem medium (Thermofisher; 11058021) and incubated for 5 minutes at room temperature. […]
After transfection the cells were incubated for 24 hrs in normoxia conditions (20% oxygen) before being switched to a gas mix of 5% oxygen, 10% carbon dioxide and 85% nitrogen (hypoxia). […] Induction of the promoters was assessed by using luciferase activity after 3, 5 and 24 hrs in hypoxia.
as §1
Media was removed from the cells at the respective time point (0, 3, 5, 24 hrs after induction). […] 10 μl of supernatant was pipetted into white 96-well plate and luminescence measured by addition of 50 μl of LARII substrate. […]

CHO-GS cells = test: Luciferase expression in transiently transfected CHO-GS suspension cells, normoxia vs 24 hrs hypoxia; format: cell-based, Chinese hamster; settings: CHO_GS suspension cell line
Procedure: 40 ml of cells were grown in a 250 ml vented Erlenmeyer flask (Sigma-Aldrich CLS431144) at 37° C., 20% O2, 8% CO2 with agitation at 100 rpm. Cells were seeded as at 300,000 cells/ml.
as §2
On the day of transfection, the cells are seeded to 1,000,000 cells/ml in 500 μl of appropriate medium (Thermofisher, CD-CHO 10743029) in a 24 well plate. 0.625 μg of DNA per well was then added to 10 μl of OptiMem medium (Thermofisher; 11058021) and incubated for 5 minutes at room temperature.
Concurrently, 0.625 μl of Freestyle Max reagent (Thermofisher, 16447100) was made up to 10 μl by addition of OptiMem and incubated for 5 minutes at room temperature. After this incubation, both mixes were added to the same tube and incubated at room temperature for 25-30 minutes. The DNA/Max reagent mix (20 μl/well) was then added directly to the cells and the cells incubated at 37° C., 8% CO2 with agitation at 100 rpm. […]
After transfection the cells were incubated for 24 hrs in normoxic conditions (20% oxygen). Induction of the promoters was assessed by using luciferase activity after 24 hrs in normoxia or hypoxia (5% oxygen, 10% carbon dioxide and 85% nitrogen). […] Luciferase activity was measured as described above.

B1: RTV-015: synthetic hypoxia-inducible promoter, five HRE1 and synthetic minimal promoter MP1, SEQ ID NO: 1 (nucleic acid)
DNA: ACGTGCGATGATGCGTAGCTAGTAGTGATGATGCGTAGCTAGTAGTACGTGCGATGATGCGTAGCTAGTAGTGATGATGCGTAGCTAGTAGTACGTGCGATGATGCGTAGCTAGTAGTGATGATGCGTAGCTAGTAGTACGTGCGATGATGCGTAGCTAGTAGTGATGATGCGTAGCTAGTAGTACGTGCTTGGTACCATCCGGGCCGGCCGCTTAAGCGACGCCTATAAAAAATAGGTTGCATGCTAGGCCTAGCGCTGCCAGTCCATCTTCGCTAGCCTGTGCTGCGTCAGTCCAGCGCTGCGCTGCGTAACGGCCGCC
For B1, the “luciferase expression in normoxia and after 24 hours in hypoxia” value (HEK293-T cells) was “almost no luciferase activity in normoxia but is induced after 24 hours in hypoxia”, the “promoter activity (luciferase) relative to the other promoters” value (HEK293-F cells) was “weakest” and the “luciferase expression in normoxia and after 24 hours in hypoxia” value (CHO-GS cells) was “almost no luciferase activity in normoxia but is induced after 24 hours in hypoxia”.
